# Test results taken from paper PMC9482650, “Quantitative fragmentomics allow affinity mapping of interactomes” (Nature Communications, 2022).
# T1: PDZD2_6, O15018
# T1 sequence (O15018 2745-2839, limits assumed, looked up): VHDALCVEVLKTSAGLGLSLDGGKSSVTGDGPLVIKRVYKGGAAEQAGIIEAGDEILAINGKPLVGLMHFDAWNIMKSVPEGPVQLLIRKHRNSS
# T2: MPP5, Q8N3R9
# T2 sequence (Q8N3R9 251-346, limits assumed, looked up): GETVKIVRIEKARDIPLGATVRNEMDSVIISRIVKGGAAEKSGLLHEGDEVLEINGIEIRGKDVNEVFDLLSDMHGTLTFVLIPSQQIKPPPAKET
# T3: PDZRN3_2, Q9UPQ7
# T3 sequence (Q9UPQ7 414-513, limits assumed, looked up): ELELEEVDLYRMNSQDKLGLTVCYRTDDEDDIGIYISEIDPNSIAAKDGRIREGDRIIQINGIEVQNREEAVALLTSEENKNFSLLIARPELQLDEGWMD
# T4: USH1C_2, Q9Y6N9
# T4 sequence (Q9Y6N9 206-303, limits assumed, looked up): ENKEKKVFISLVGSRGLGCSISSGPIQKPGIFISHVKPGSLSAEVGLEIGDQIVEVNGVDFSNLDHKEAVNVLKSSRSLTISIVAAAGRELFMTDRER
# T5: MPDZ_7, O75970
# T5 sequence (O75970 1146-1253, limits assumed, looked up): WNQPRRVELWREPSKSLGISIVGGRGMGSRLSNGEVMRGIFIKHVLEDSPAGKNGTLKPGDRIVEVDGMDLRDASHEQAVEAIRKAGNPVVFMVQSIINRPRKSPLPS
# T6: PDLIM3, Q53GG5
# T6 sequence (Q53GG5 1-94, limits assumed, looked up): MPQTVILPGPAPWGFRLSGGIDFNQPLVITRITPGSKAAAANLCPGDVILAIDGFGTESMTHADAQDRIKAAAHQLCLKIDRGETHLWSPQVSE
# T7: SIPA1L3, O60292
# T7 sequence (O60292 961-1052, limits assumed, looked up): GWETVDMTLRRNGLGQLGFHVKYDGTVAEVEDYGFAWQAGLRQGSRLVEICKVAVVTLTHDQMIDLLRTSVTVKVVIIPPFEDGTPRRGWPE
# T8: PDZD2_5, O15018
# T8 sequence (O15018 2617-2716, limits assumed, looked up): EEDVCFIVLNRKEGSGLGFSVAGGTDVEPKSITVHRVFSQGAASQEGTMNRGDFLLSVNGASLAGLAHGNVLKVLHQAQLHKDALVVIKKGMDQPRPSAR
# T9: PDZD4, Q76G19
# T9 sequence (Q76G19 125-224, limits assumed, looked up): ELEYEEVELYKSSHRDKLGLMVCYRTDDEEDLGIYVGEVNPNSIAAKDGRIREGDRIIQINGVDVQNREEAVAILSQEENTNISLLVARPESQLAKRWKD
# T10: SYNPO2L, Q9H987
# T10 sequence (Q9H987 1-98, limits assumed, looked up): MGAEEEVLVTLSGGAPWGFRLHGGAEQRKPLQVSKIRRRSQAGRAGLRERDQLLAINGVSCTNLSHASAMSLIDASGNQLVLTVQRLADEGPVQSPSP
# T11: CNKSR1, Q969H4
# T11 sequence (Q969H4 191-295, limits assumed, looked up): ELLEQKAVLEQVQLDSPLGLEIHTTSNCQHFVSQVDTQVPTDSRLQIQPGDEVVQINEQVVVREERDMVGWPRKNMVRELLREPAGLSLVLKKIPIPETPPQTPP
# T12: USH1C_3, Q9Y6N9
# T12 sequence (Q9Y6N9 447-547, limits assumed, looked up): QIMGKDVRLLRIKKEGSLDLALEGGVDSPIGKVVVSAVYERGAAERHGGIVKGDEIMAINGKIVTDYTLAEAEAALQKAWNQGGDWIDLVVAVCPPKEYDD
# T13: SNTB2, Q13425
# T13 sequence (Q13425 110-208, limits assumed, looked up): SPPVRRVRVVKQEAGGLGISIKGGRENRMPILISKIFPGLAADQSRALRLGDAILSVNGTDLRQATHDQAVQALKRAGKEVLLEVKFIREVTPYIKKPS
# Key:
# Test in all cases: holdup assay
# Set-up in all cases: key: below the threshold = too weak to quantify, mostly under pKd 3.1 to 4
# Conditions in all cases: plain residues with an end cap or a label only (N-terminal biotin on a linker: ttds)
# PDZD2_6, O15018 = molecular target: T1, PDZD2_6, O15018
# MPP5, Q8N3R9 = molecular target: T2, MPP5, Q8N3R9
# GRIP2_2, Q9C0E4 = molecular target: GRIP2_2, Q9C0E4
# PDZRN3_2, Q9UPQ7 = molecular target: T3, PDZRN3_2, Q9UPQ7
# USH1C_2, Q9Y6N9 = molecular target: T4, USH1C_2, Q9Y6N9
# CNKSR3, Q6P9H4 = molecular target: CNKSR3, Q6P9H4
# MPDZ_7, O75970 = molecular target: T5, MPDZ_7, O75970
# PDLIM3, Q53GG5 = molecular target: T6, PDLIM3, Q53GG5
# MAST3, O60307 = molecular target: MAST3, O60307
# PDLIM4, P50479 = molecular target: PDLIM4, P50479
# PARD3B_2, Q8TEW8 = molecular target: PARD3B_2, Q8TEW8
# MAGI1_5, Q96QZ7 = molecular target: MAGI1_5, Q96QZ7
# SIPA1L3, O60292 = molecular target: T7, SIPA1L3, O60292
# PDZD2_5, O15018 = molecular target: T8, PDZD2_5, O15018
# DLG5_2, Q8TDM6 = molecular target: DLG5_2, Q8TDM6
# SDCBP_1, O00560 = molecular target: SDCBP_1, O00560
# PDZD4, Q76G19 = molecular target: T9, PDZD4, Q76G19
# MAGI3_6, Q5TCQ9 = molecular target: MAGI3_6, Q5TCQ9
# SYNPO2L, Q9H987 = molecular target: T10, SYNPO2L, Q9H987
# MAGI3_4, Q5TCQ9 = molecular target: MAGI3_4, Q5TCQ9
# MAGI1_6, Q96QZ7 = molecular target: MAGI1_6, Q96QZ7
# CNKSR1, Q969H4 = molecular target: T11, CNKSR1, Q969H4
# USH1C_3, Q9Y6N9 = molecular target: T12, USH1C_3, Q9Y6N9
# SNTB2, Q13425 = molecular target: T13, SNTB2, Q13425
# Chain of PDLIM4, P50479 (P50479 1-83): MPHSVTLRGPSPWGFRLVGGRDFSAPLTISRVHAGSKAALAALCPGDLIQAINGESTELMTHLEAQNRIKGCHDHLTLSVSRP
# Chain of SDCBP_1, O00560 (O00560 111-198): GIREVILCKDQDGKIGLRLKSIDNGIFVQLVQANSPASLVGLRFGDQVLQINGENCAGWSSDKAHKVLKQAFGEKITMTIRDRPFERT
# Chain of PARD3B_2, Q8TEW8 (Q8TEW8 376-471): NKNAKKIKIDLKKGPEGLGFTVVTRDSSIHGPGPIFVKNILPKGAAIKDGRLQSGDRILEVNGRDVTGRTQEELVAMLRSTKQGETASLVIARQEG
# Chain of MAGI1_5, Q96QZ7 (Q96QZ7 986-1098): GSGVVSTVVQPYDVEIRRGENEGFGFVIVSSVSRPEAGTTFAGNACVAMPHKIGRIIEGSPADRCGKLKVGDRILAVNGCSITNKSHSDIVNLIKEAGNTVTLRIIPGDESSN
# Chain of DLG5_2, Q8TDM6 (Q8TDM6 714-800): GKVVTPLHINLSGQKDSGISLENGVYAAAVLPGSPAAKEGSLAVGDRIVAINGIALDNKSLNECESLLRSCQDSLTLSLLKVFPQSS
# Chain of MAGI3_6, Q5TCQ9 (Q5TCQ9 1014-1103): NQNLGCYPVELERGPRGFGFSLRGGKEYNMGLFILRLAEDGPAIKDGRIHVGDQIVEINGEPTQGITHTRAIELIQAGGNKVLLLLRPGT
# Chain of MAGI3_4, Q5TCQ9 (Q5TCQ9 716-815): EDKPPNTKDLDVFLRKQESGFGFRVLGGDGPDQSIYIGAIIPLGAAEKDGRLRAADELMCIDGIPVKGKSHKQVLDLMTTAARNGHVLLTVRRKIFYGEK
# Chain of MAST3, O60307 (O60307 945-1048): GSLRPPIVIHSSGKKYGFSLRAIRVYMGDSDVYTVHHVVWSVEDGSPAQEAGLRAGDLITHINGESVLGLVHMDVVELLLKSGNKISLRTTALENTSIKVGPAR
# Chain of CNKSR3, Q6P9H4 (Q6P9H4 203-303): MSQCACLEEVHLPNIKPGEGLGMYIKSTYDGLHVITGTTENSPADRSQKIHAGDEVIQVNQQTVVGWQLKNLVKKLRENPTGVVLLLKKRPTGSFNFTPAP
# Chain of GRIP2_2, Q9C0E4 (Q9C0E4 137-245): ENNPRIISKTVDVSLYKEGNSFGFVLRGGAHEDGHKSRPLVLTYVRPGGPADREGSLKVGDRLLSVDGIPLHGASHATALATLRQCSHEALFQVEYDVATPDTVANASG
# Chain of MAGI1_6, Q96QZ7 (Q96QZ7 1146-1238): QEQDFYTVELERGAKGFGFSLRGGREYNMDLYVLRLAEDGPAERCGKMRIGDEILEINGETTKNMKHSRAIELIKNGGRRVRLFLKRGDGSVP
binder,measurement,setting,value
"PSRDRKETSI [RALBP1, Q15311]",pKd,"PDZD2_6, O15018",below the threshold
same,pKd,"MPP5, Q8N3R9",below the threshold
same,pKd,"GRIP2_2, Q9C0E4",4.25
same,pKd,"PDZRN3_2, Q9UPQ7",below the threshold
same,pKd,"USH1C_2, Q9Y6N9",below the threshold
same,pKd,"CNKSR3, Q6P9H4",below the threshold
same,pKd,"MPDZ_7, O75970",below the threshold
same,pKd,"PDLIM3, Q53GG5",below the threshold
same,pKd,"MAST3, O60307",below the threshold
same,pKd,"PDLIM4, P50479",below the threshold
same,pKd,"PARD3B_2, Q8TEW8",3.74
same,pKd,"MAGI1_5, Q96QZ7",below the threshold
same,pKd,"SIPA1L3, O60292",below the threshold
same,pKd,"PDZD2_5, O15018",below the threshold
same,pKd,"DLG5_2, Q8TDM6",4.26
same,pKd,"SDCBP_1, O00560",below the threshold
same,pKd,"PDZD4, Q76G19",below the threshold
same,pKd,"MAGI3_6, Q5TCQ9",below the threshold
same,pKd,"SYNPO2L, Q9H987",below the threshold
same,pKd,"MAGI3_4, Q5TCQ9",below the threshold
same,pKd,"MAGI1_6, Q96QZ7",below the threshold
same,pKd,"CNKSR1, Q969H4",below the threshold
same,pKd,"USH1C_3, Q9Y6N9",below the threshold
same,pKd,"SNTB2, Q13425",3.94
